From PMC3869376

Legend:
[1] = target: 14-3-3β (UniProt P31946); assay: GST-14-3-3β pull-down from cell lysate; settings: reference: HA-PDE3B wild type; sites S318
[2] = target: 14-3-3β (UniProt P31946); assay: DIG-GST-14-3-3β overlay on blotted immunoprecipitated PDE3B; settings: reference: HA-PDE3B wild type; sites S318

Sequence of 14-3-3β (P31946 whole entry, looked up): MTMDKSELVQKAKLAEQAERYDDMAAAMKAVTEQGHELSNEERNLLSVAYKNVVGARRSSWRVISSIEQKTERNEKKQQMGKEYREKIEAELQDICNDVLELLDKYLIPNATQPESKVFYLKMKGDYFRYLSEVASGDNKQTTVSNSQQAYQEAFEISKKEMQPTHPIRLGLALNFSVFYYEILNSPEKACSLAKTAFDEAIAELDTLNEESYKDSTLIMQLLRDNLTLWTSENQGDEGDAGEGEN

In the case of “PDE3B (phosphodiesterase 3B) (from UniProt Q13370-2) HA-PDE3B S318A”, the “binding against the reference” value [1] was “lost” and the “binding against the reference” value [2] was “lost”.
